Laboratory results reported in publication PMC3420887.

Assays:
[1] = target: T1, 6HisPrpR (PrpRMt) (Mycobacterium tuberculosis H37Rv) (UniProt O06581); test: SPR; conditions: 50 mM Tris-HCl pH 7.5, 50 mM KCl, 10 mM MgCl2, 10% glycerol, 0.5 mM EDTA; […], SA chip)
T1 sequence: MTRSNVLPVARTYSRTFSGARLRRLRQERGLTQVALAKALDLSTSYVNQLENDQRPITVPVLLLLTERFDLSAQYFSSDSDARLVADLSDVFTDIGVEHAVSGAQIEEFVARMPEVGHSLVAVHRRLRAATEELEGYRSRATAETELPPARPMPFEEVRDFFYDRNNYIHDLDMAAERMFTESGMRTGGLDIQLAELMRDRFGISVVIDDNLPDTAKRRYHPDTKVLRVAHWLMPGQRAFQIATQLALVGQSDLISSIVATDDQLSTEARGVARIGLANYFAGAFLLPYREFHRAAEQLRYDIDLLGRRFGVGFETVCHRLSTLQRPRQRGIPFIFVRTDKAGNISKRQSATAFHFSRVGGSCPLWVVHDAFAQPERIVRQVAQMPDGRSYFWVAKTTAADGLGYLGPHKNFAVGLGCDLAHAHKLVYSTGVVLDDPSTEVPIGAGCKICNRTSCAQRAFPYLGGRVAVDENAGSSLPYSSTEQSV

6HisRamB [2] = target: T2, 6HisRamB (UniProt P9WMI1); test: SPR; conditions: 50 mM Tris-HCl pH 7.5, 50 mM KCl, 10 mM MgCl2, 10% glycerol, 0.5 mM EDTA; […], SA chip)
T2 sequence: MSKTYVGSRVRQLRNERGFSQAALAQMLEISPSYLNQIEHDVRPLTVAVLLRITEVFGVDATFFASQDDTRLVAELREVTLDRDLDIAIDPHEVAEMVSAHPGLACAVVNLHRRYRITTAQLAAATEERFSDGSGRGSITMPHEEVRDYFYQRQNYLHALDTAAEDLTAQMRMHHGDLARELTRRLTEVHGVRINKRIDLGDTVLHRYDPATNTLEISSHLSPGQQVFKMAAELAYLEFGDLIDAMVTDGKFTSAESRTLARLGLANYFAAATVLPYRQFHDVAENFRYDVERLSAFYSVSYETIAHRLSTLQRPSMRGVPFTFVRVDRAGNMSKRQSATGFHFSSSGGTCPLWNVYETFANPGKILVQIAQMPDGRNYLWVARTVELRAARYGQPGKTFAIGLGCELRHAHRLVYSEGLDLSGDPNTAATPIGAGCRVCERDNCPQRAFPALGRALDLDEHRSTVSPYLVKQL

[3] = target: T1, 6HisPrpR (PrpRMt) (Mycobacterium tuberculosis H37Rv); test: EMSA; conditions: 50 mM Tris-HCl pH 7.5, 50 mM KCl, 10 mM MgCl2, 10% glycerol, 0.5 mM EDTA; […], SA chip)
[4] = tested on: 6HisPrpR (PrpRMt) (Mycobacterium tuberculosis H37Rv); test: SPR; conditions: 50 mM Tris-HCl pH 7.5, 50 mM KCl, 10 mM MgCl2, 10% glycerol, 0.5 mM EDTA; 25 C, 30 min (EMSA, footprinting); same buffer for SPR (BIAcore T3000, SA chip)
6HisRamB [5] = test: SPR; conditions: 50 mM Tris-HCl pH 7.5, 50 mM KCl, 10 mM MgCl2, 10% glycerol, 0.5 mM EDTA; […], SA chip)

| Substance | Kd [1] [nM] | Kd (6HisRamB [2]) [nM] | binding [3] | Kd [4] [nM] | Kd (6HisRamB [5]) [nM] |
| --- | --- | --- | --- | --- | --- |
| GGCGGTCGAACACGTCGGGGTGACCGTCGGGCACGGGCATCAATTTTTTGTCGAGGCTCACGGCGTTCTCCCCATTTCCTCCTCGCGTGTACCTCAGGCTCACCCTTGAGTCCCGGTGCGAATCATGCCAACGCCGTGGCGGAAACACCAATCGCAGCACGCTTGCTAACTCTGCGAATGGCGTCTTCACAACACCCGGTACGCTCGGTTGGGTGTCCAAGACCTACGTCGGCTCGCGGGTCCGCCAACTGCCC (double strand) [pramB] | 32 | 328 | binds |  |  |
| GGGTGCCTCCGATCCGAGCTCGGACTCGGCAAGTACCGCCACTTTCATGACCGCGCGAGGTGGTGCGTCGGGAGCGCTACTGGTGTTCGTGTTCGCTGACGACATGTAGCGGGCAGCTCCTCTTCCGGGCGGTTCGTTTGCAAACGATACGCATGCTGTGTGTAGATTTCCCACCTCCCGACAGCCGAGACGACGACATGTGCTGGAGTTATTGCCTTCGACTTGACGGTTGATCGTTAGCACC (double strand) [pkstR] | 25 |  | binds |  |  |
| GGTGCTCCGCGCTCTTCGGGGTGCCGACGACAGACATAGACAACTCCTTAACGGTCTTTCATTGCCGAAAACGCTGACGCCCTACCGTCGTCCAGGCGGTGTCAACGGCGCAGCTTCACTGGTGTGCTAACTCGACCATGGCACAGCGTGTCAACGCTGGTCCACCCATTTCACTTGCGAATTTCGGCAACGGCCTGCGGACTTTTTGCAAATTTTGCGAAGTCGCCCAAAAACTGAACCGTTTCAGAAGCTACCCGCCAGTAACGACAAATCCGCAGGTAAACCCCC (double strand) [picl1] |  |  | binds |  |  |
| pkstR |  |  |  | 25 |  |
| pramB |  |  |  | 32 | 328 |
